Assay results from the supplement of paper PMC10065799, “High-throughput profiling of sequence recognition by tyrosine kinases and SH2 domains using bacterial peptide display” (eLife, 2023).
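Further: 11-residue human phosphosite peptides and single-mutation variants displayed on the E. coli surface, counted by deep sequencing, each peptide's frequency after selection divided by its frequency in the unselected input library; frequency after pTyr selection over input frequency; kinase dosed for 20-30% of maximal phosphorylation in three min.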

What follows are sequences tested against Fes (UniProt P07332) (assay: phosphorylation enrichment, bacterial display (enrichment ratio); higher = better substrate or ligand; peptides without Tyr show the background).
Sequence of Fes (P07332 whole entry, looked up): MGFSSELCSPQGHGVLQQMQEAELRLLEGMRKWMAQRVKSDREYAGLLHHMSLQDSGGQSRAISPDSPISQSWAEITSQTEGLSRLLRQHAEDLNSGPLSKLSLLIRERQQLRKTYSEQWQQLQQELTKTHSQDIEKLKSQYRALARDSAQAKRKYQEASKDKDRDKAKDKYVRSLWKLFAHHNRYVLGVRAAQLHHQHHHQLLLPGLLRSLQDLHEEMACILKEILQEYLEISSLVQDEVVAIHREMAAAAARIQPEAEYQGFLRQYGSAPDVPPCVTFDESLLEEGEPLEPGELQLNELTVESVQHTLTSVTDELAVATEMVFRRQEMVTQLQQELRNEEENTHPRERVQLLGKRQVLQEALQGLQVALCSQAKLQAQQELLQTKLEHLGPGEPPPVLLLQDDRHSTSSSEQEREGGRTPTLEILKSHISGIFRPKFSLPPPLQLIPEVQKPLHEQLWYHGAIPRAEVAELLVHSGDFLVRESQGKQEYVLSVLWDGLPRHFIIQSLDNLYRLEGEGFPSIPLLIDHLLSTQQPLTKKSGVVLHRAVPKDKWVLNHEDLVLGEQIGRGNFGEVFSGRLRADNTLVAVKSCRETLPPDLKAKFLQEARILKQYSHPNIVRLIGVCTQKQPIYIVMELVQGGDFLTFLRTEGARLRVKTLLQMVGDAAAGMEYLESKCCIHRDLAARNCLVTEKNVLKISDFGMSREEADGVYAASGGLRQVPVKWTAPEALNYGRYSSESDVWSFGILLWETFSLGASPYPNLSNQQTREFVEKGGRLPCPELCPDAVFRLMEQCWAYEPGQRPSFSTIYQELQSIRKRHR
Work on RSFLSYYTSHV [NEFL_Y442_P440L] yielded a phosphorylation enrichment of 0.876. CKLFQYFLDHL [ATRX_Y1849_YF] was tested, and the phosphorylation enrichment was 1.41. MFNPMYALFRT [HUWE1_Y4078] gave a phosphorylation enrichment of 0.905. For QMIETYFDFRL [NSMF_Y506], the phosphorylation enrichment was 2.56. KNKNRCKNILP [PTPN11_Y279_Y279C] gave a phosphorylation enrichment of 0.942. For KNDSNYVVKGN [KIT_Y823], the phosphorylation enrichment was 0.635. Sequence VVRSLYEDLED [VHL_Y185_I180V] has a phosphorylation enrichment of 1.24. For EVKAQYEDIAQ [KRT1_Y358], the phosphorylation enrichment was 1.26. DRPASYLEKVR [KRT13_Y118_L115P] gave a phosphorylation enrichment of 0.605. YAFQLYDLDRD [CHP2_Y123] showed a phosphorylation enrichment of 1.17. Sequence TTANRYLKVSD [MYOM2_Y871] has a phosphorylation enrichment of 0.641. In the case of NQNIGYKLGHR [KCNN3_Y268], the phosphorylation enrichment is reported as 0.49. LEIETYRRLRD [KRT12_Y429_L433R] showed a phosphorylation enrichment of 1.25. Sequence CPEARYNRSPI [PTAR1_Y42] has a phosphorylation enrichment of 0.859. GAVGHYVLAER [HFE_Y342_M339V] was tested, and the phosphorylation enrichment was 0.711. In the case of EKMWSYTKSAE [GRIA3_Y705_M706T], the phosphorylation enrichment is reported as 0.748. SEDANYKRVSC [TTC3_Y1288] was tested, and the phosphorylation enrichment was 1.02. With GHNDVYILEHV [GRIN2A_Y1423_S1425L] the phosphorylation enrichment was 1.03. Work on MTRDIYRASYY [ALK_Y1278_A1274T] yielded a phosphorylation enrichment of 0.702. VDSIEYEVASQ [SLC7A7_Y7_T5I] gave a phosphorylation enrichment of 1.18. Sequence GEVLVYAEDPA [FLNA_Y319_V320A] has a phosphorylation enrichment of 1.05. RARIRYAQEHD [NSD1_Y1987] showed a phosphorylation enrichment of 0.885. Work on FQKDVYNIPPS [NEDD9_Y177_D178N_YF] yielded a phosphorylation enrichment of 0.572. Work on SFPHEYGSQEG [RBM10_Y48_R46H_YF] yielded a phosphorylation enrichment of 0.87. In the case of LVVFEYMRHGD [NTRK1_Y591_M587V], the phosphorylation enrichment is reported as 1.03. For KNRDVSSSDFF [USP24_Y2134_Y2134S_YF], the phosphorylation enrichment was 0.71. GEETDYTPVWC [UROD_Y30] was tested, and the phosphorylation enrichment was 1.43. Sequence YSDPSYVKQME [CDC5L_Y464] has a phosphorylation enrichment of 0.817. In the case of NAGDYYDLYGG [PTPN11_Y63_T59A], the phosphorylation enrichment is reported as 1.55. LPEVSYVKAID [GLRA1_Y307_K304E] showed a phosphorylation enrichment of 0.205.

The sequences below were run against Fyn (UniProt P06241) in the same assay as above.
Sequence of Fyn (P06241 whole entry, looked up): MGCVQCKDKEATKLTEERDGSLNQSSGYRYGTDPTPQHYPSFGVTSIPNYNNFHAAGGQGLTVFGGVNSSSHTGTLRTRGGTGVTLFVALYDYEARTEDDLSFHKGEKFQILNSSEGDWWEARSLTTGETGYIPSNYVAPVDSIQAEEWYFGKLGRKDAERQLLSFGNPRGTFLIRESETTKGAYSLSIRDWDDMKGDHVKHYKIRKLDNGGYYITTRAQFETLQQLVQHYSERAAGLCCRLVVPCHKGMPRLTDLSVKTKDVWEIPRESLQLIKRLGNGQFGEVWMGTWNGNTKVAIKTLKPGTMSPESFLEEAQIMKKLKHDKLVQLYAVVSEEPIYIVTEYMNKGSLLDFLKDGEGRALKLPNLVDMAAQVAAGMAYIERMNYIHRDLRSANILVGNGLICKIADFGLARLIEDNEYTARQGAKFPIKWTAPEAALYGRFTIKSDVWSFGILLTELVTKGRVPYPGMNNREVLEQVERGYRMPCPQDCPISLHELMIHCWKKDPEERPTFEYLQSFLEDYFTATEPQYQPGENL
Work on AFLGEYIPTVF [RAC2_Y32_P29L] yielded a phosphorylation enrichment of 0.593. In the case of ESMLRYEVFGG [STOX1_Y607_YF], the phosphorylation enrichment is reported as 0.592. QLQQAYQEAFE [YWHAZ_Y149_S145L] was tested, and the phosphorylation enrichment was 1.23. Sequence RSFLSYYTSHV [NEFL_Y442_P440L] has a phosphorylation enrichment of 0.692. Work on CKLFQYFLDHL [ATRX_Y1849_YF] yielded a phosphorylation enrichment of 0.536. In the case of MFNPMYALFRT [HUWE1_Y4078], the phosphorylation enrichment is reported as 4.28. In the case of QMIETYFDFRL [NSMF_Y506], the phosphorylation enrichment is reported as 6.04. KNKNRCKNILP [PTPN11_Y279_Y279C] gave a phosphorylation enrichment of 0.374. For KNDSNYVVKGN [KIT_Y823], the phosphorylation enrichment was 0.37. For VVRSLYEDLED [VHL_Y185_I180V], the phosphorylation enrichment was 0.587. EVKAQYEDIAQ [KRT1_Y358] showed a phosphorylation enrichment of 0.556. DRPASYLEKVR [KRT13_Y118_L115P] gave a phosphorylation enrichment of 0.299. For YAFQLYDLDRD [CHP2_Y123], the phosphorylation enrichment was 2.66. In the case of TTANRYLKVSD [MYOM2_Y871], the phosphorylation enrichment is reported as 0.404. Sequence NQNIGYKLGHR [KCNN3_Y268] has a phosphorylation enrichment of 0.361. LEIETYRRLRD [KRT12_Y429_L433R] showed a phosphorylation enrichment of 0.658. CPEARYNRSPI [PTAR1_Y42] was tested, and the phosphorylation enrichment was 0.441. Work on GAVGHYVLAER [HFE_Y342_M339V] yielded a phosphorylation enrichment of 0.47. EKMWSYTKSAE [GRIA3_Y705_M706T] gave a phosphorylation enrichment of 0.425. With SEDANYKRVSC [TTC3_Y1288] the phosphorylation enrichment was 0.612. GHNDVYILEHV [GRIN2A_Y1423_S1425L] gave a phosphorylation enrichment of 4.4. With MTRDIYRASYY [ALK_Y1278_A1274T] the phosphorylation enrichment was 0.888. With VDSIEYEVASQ [SLC7A7_Y7_T5I] the phosphorylation enrichment was 0.491. GEVLVYAEDPA [FLNA_Y319_V320A] gave a phosphorylation enrichment of 0.593. With RARIRYAQEHD [NSD1_Y1987] the phosphorylation enrichment was 0.757. Sequence FQKDVYNIPPS [NEDD9_Y177_D178N_YF] has a phosphorylation enrichment of 2.54. SFPHEYGSQEG [RBM10_Y48_R46H_YF] gave a phosphorylation enrichment of 0.515. In the case of LVVFEYMRHGD [NTRK1_Y591_M587V], the phosphorylation enrichment is reported as 0.46. With KNRDVSSSDFF [USP24_Y2134_Y2134S_YF] the phosphorylation enrichment was 0.432. GEETDYTPVWC [UROD_Y30] showed a phosphorylation enrichment of 0.535. YSDPSYVKQME [CDC5L_Y464] was tested, and the phosphorylation enrichment was 0.434. NAGDYYDLYGG [PTPN11_Y63_T59A] gave a phosphorylation enrichment of 7.13. LPEVSYVKAID [GLRA1_Y307_K304E] was tested, and the phosphorylation enrichment was 0.28.

The sequences below were run against Hck (UniProt P08631) in the same assay as above.
Sequence of Hck (P08631 whole entry, looked up): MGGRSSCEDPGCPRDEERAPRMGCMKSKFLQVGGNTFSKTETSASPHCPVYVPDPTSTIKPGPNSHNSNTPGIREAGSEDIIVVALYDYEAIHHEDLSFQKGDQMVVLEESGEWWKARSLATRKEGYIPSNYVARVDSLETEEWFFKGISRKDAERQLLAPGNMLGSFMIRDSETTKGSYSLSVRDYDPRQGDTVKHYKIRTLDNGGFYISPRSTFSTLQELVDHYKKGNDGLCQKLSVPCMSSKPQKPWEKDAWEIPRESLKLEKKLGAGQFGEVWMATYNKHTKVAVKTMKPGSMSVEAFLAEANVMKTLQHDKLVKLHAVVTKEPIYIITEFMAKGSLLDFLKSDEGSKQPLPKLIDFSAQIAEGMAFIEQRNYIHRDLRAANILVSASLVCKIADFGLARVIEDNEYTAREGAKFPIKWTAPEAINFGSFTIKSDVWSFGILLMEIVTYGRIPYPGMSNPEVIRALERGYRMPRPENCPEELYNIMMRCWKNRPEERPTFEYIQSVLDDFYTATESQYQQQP
Work on AFLGEYIPTVF [RAC2_Y32_P29L] yielded a phosphorylation enrichment of 0.516. For ESMLRYEVFGG [STOX1_Y607_YF], the phosphorylation enrichment was 0.7. QLQQAYQEAFE [YWHAZ_Y149_S145L] showed a phosphorylation enrichment of 1.67.
